Source: paper PMC2736636
Where two headings read alike, the source gives them in different places.

Experiments:
Assay in all cases: EMSA
[1] = molecular target: T1, O6-alkylguanine-DNA alkyltransferase (AGT, MGMT) (human, UniProt P16455 1-207)
[2] = molecular target: T1, O6-alkylguanine-DNA alkyltransferase …; remark: listed apart in the source
[3] = molecular target: T1, O6-alkylguanine-DNA alkyltransferase …; remark: listed apart in the source

T1 sequence (P16455 whole entry): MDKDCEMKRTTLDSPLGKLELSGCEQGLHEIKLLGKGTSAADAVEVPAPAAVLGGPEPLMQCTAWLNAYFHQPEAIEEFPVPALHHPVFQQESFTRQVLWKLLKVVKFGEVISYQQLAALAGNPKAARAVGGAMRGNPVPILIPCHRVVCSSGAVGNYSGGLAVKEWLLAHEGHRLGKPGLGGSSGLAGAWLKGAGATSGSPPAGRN

B1: duplex 16mer (A/B) (dsDNA)
DNA 1: GACTGACTGACTGACT
DNA 2: AGTCAGTCAGTCAGTC
B1 was tested, and the Ka [1] was 2.58e+06 M⁻¹, the Ka [2] was 3.97 ± 0.02 log10 M-1 and the Ka [3] was 16900 M⁻¹.
